From patent US20150284465A1 (Chugai, published 2015) come the findings set out here.

Assay [1] addresses T1, SR344 (N-terminal 1st to 344th amino acids of soluble human IL-6R) (human, UniProt P08887 20-344, limits assumed).
T1 construct: also called recombinant soluble IL-6 receptor; soluble human IL-6 receptor
T1 sequence (looked up): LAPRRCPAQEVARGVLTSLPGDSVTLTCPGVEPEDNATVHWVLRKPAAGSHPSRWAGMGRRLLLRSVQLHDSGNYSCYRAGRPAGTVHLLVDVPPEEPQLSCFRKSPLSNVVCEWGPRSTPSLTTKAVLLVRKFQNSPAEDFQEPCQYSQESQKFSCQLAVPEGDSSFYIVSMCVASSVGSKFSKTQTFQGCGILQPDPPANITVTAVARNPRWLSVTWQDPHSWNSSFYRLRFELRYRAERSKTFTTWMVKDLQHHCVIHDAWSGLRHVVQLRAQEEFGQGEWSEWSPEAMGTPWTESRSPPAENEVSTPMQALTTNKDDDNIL
The experiment in a line: SPR (Biacore T100), antibody captured on Protein A/G, SR344 as analyte, 37 C.

The target of assay [2] is T1, SR344 (N-terminal 1st to 344th amino …). Described as above. As for the experimental part: The antigen-antibody interaction was measured by immobilizing purified Recomb Protein A/G (Pierce) (hereinafter “Protein A/G”) onto a sensor chip, binding various antibodies onto the chip, and then flowing the antigen over the chip as an analyte. Various concentrations of recombinant soluble IL-6 receptor (SR344) were used as the antigen. The measurement conditions were the same as described in Example 2.
Kinetic analysis was carried out using Biacore-specific data analysis software Biacore T100 Evaluation Software.
This is another data set of the same source.

Assay [3] has the same target. The description is as above. As for the experimental part: (§1) This measurement was carried out under the same conditions described in Example 2. The running buffer used was HBS-EP+, and the flow rate was 20 μl/min. Each antibody was prepared so that about 100 RU of the antibody was bound to Protein A/G. SR344 was prepared at 0, 0.065, 0.131, and 0.261 μg/ml using HBS-EP+ and used as an analyte. In the first step of the measurement, the antibody in solution was bound to Protein A/G, and the analyte solution was allowed to interact therewith. After three minutes of interaction, the solution was switched to HBS-EP+, and the dissociation phase was monitored for 10 or 15 minutes. After measurement of the dissociation phase, the sensor chip was regenerated by washing with 10 μl of 10 mM glycine-HCl (pH 1.5). The association, dissociation, and regeneration constitute one analysis cycle. Each antibody was measured according to this cycle.
The sensorgram was kinetically analyzed using the Biacore-specific data analysis software, Biacore T100 Evaluation Software.
The source holds these as a separate data set.

The target is the same in assay [4]. The experiment in a line: SPR (Biacore T100), Protein A/G capture, SR344 at 0, 0.36 and 1.4 µg/ml, 15 min dissociation, 37 C. As for the experimental part:
as §1
The Tm of purified H96/PF1L-IgG1 was determined by the method described in Example 5. The affinity measurement was carried out under essentially the same conditions used in Example 5. Note that the concentration of SR344 was adjusted to 0, 0.36, and 1.4 μg/ml, and the dissociation phase was monitored for 15 minutes.

The target is the same in assay [5]. The description is as above. The source holds these as a separate data set.
The target is the same in assay [6]. The experiment in a line: SPR (Biacore T100), SR344 as analyte, 37 C.
Assay [7] shares this target. The experiment in a line: SPR (Biacore T100), antibody captured on anti-IgG (γ-chain specific) F(ab')2, SR344 as analyte, pH 7.4, 37 C. The procedure: Antigen-antibody reaction kinetics was analyzed using Biacore T100 (GE Healthcare). The SR344-antibody interaction was measured by immobilizing appropriate amounts of anti-IgG (γ-chain specific) F(ab′)2 onto a sensor chip by amine coupling method, binding antibodies of interest onto the chip at pH 7.4, and then flowing IL-6 receptor SR344 adjusted to be various concentrations at pH 7.4 over the chip as an analyte. All measurements were carried out at 37° C. The kinetic parameters, association rate constant kₐ (1/Ms) and dissociation rate constant kd (1/s) were calculated from the sensorgrams obtained by measurement. Then, KD (M) was determined based on the rate constants. The respective parameters were determined using Biacore T100 Evaluation Software (GE Healthcare).
(In general: In SPR one partner is held on a chip, and binding of the other changes the refractive index at the surface.)

Assay [8] addresses T2, soluble human FcRn (complex of FcRn and β2-microglobulin) (human, UniProt P55899 24-290; P16213 21-119).
T2 construct: also called hFcRn; copies: 1 + 1
The experiment in a line: SPR (Biacore 3000), human FcRn as analyte, pH 6.0.

Assay [9] concerns the target T2, soluble human FcRn (complex of FcRn and …). The experiment in a line: SPR (Biacore 3000), antibody captured on Protein L or anti-human kappa chain antibody, human FcRn as analyte, pH 6.0, steady state affinity. The procedure: (§2) The binding to human FcRn was assessed using Biacore 3000. An antibody was bound to Protein L or rabbit anti-human IgG Kappa chain antibody immobilized onto a sensor chip, human FcRn was added as an analyte for interaction with the antibody, and the affinity (KD) was calculated from the amount of bound human FcRn. Specifically, Protein L or rabbit anti-human IgG Kappa chain antibody was immobilized onto sensor chip CM5 (Biacore) by the amine coupling method using 50 mM Na-phosphate buffer (pH 6.0) containing 150 mM NaCl as the running buffer. Then, an antibody was diluted with a running buffer containing 0.02% Tween20, and injected to be bound to the chip. Human FcRn was then injected and the binding activity of the human FcRn to antibody was assessed.
(§3) The affinity was computed using BlAevaluation Software. The obtained sensorgram was used to calculate the amount of hFcRn bound to the antibody immediately before the end of human FcRn injection. The affinity of the antibody for human FcRn was calculated by fitting with the steady state affinity method.

Assay [10] shares this target. Described as above. The procedure: as §2, §3
The source holds these as a separate data set.

The Kd is the free concentration of one partner at which half of the binding sites on the other are occupied at equilibrium, for simple one-to-one binding. Low values mean higher affinity, high ones lower affinity. The term koff denotes the first-order rate constant of dissociation. The kon is the rate constant with which the complex forms. Low values mean slower complex formation, high ones faster complex formation.

Substitutions are numbered along the chain they refer to. Where two headings read alike, the source gives them in different places.

T2 sequence (P55899 24-290 limits assumed, chain 1 of 2): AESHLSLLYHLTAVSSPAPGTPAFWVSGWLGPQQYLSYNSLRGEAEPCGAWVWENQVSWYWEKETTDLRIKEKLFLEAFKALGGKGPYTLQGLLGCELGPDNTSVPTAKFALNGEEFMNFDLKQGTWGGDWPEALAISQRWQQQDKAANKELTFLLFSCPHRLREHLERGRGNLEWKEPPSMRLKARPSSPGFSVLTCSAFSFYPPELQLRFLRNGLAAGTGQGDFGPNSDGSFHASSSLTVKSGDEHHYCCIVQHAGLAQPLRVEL
T2 sequence (P16213 21-119 limits assumed, chain 2 of 2): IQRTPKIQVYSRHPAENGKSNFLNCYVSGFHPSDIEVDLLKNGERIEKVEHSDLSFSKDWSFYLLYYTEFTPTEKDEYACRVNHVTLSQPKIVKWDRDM

B1: H53/L28 (antibody, IgG1, V domains shown)
VH: QVQLQESGPGLVKPSETLSLTCAVSGYSISDDHAWSWVRQPPGEGLEWIGYISYSGITNYNPSLKGRVTISRDTSKNQFSLKLSSVTAADTAAYYCARSLARTTAMDYWGEGTLVTVSS
VL: DIQMTQSPSSLSASVGDSVTITCQASQDISSYLNWYQQKPGKAPELLIYYGSELHSGVPSRFSGSGSGTDFTFTISSLEAEDAATYYCQQGNSLPYTFGQGTKVEIE
notes: Made from the vectors of the IgG1 antibody WT
As to B1, the “fold improved affinity against WT” value in assay [1] is roughly 6 fold. In assay [2], this molecule gave a Kd of 0.68 nM, a koff of 0.00052 s⁻¹ and a kon of 760000 M⁻¹ s⁻¹. Besides, in assay [3], the Kd was 0.68 nM, the koff came out at 0.00052 s⁻¹ and the kon is 760000 M⁻¹ s⁻¹.

B2: PF1 antibody (antibody, IgG1, V domains shown)
VH: B1 VH with S99V, T103I
VL: B1 VL with Q89G, S93R
notes: also called PF1-IgG1; PF1_H/PF1_L
As for B2, the “fold improved affinity against WT” value in assay [1] is roughly 150 fold. In assay [3], this molecule returned a Kd of 0.027 nM, a koff of 3.5e-05 s⁻¹ and a kon of 1.3e+06 M⁻¹ s⁻¹. For the same molecule, in assay [4], the Kd stood at 0.031 nM, the koff was 4.2e-05 s⁻¹ and the kon came out at 1.4e+06 M⁻¹ s⁻¹. In assay [5], this molecule returned a Kd of 0.03 nM, an off-rate constant (koff) of 4.4e-05 s⁻¹ and a kon of 1.5e+06 M⁻¹ s⁻¹.

B3: Fv3-M73 (antibody, V domains shown)
VH: QVQLQESGPGLVKPSETLSLTCAVSGHSISHDHAWSWVRQPPGEGLEWIGFISYSGITNYNPTLQGRVTISRDNSKNTLYLQMNSLRAEDTAVYYCARSLARTTAMDYWGEGTLVTVSS
VL: DIQMTQSPSSLSASVGDSVTITCQASRDISSHLNWYQQKPGKAPELLIYYGSHLLSGVPSRFSGSGSGTDFTFTISSLEAEDAATYYCGQGNRLPYTFGQGTKVEIER
notes: also called VH4-M73/VL1-kappa
Take B3: in assay [6], the “fold higher affinity than TOCILIZUMAB” value worked out at 3 fold. Moreover, in assay [7], the affinity, expressed as Kd, was 1 nM; the koff was 0.00087 s⁻¹; the kon was determined as 850000 M⁻¹ s⁻¹.

B4: Fv4-M73 (antibody, V domains shown)
VH: B3 VH with T63S
VL: B3 VL with R27T
notes: also called VH3-M73/VL3-kappa
Take B4: the “fold higher affinity than TOCILIZUMAB” value in [6] is 2 fold. In assay [7], this molecule returned a Kd of 1.4 nM, a koff of 0.001 s⁻¹ and a kon of 750000 M⁻¹ s⁻¹.

B5: WT-M58 (antibody)
heavy: QVQLQESGPGLVRPSQTLSLTCTVSGYSITSDHAWSWVRQPPGRGLEWIGYISYSGITTYNPSLKSRVTMLRDTSKNQFSLRLSSVTAADTAVYYCARSLARTTAMDYWGQGSLVTVSSASTKGPSVFPLAPSSKSTSGGTAALGCLVKDYFPEPVTVSWNSGALTSGVHTFPAVLQSSGLYSLSSVVTVPSSNFGTQTYTCNVDHKPSNTKVDKTVERKSCVECPPCPAPPVAGPSVFLFPPKPKDTLMISRTPEVTCVVVDVSQEDPEVQFNWYVDGVEVHNAKTKPREEQFNSTFRVVSVLTVVHQDWLNGKEYKCKVSNKGLPAPIEKTISKTKGQPREPQVYTLPPSQEEMTKNQVSLTCLVKGFYPSDIAVEWESNGQPENNYKTTPPMLDSDGSFFLYSKLTVDKSRWQEGNVFSCSVMHEALHNHYTQKSLSLSP
light: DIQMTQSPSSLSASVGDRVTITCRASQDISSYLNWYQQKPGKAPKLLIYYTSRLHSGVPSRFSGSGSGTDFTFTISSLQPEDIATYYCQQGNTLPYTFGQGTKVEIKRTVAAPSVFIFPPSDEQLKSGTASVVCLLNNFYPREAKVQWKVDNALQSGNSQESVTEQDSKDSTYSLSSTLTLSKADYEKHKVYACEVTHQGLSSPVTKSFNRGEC
notes: also called M58 (WT)
For the molecule B5, the “binding activity relative to WT-IgG1” value in assay [8] is roughly 1.4 fold. For the same molecule, the Kd in assay [9] is 1170 nM; in [10], 1030 nM.
